Source: PMC8967717 (Nature, 2022)
Values joined by “and” are separate entries in the source; they are usually repeats but may differ in a detail not shown here. Equal entries are not always repeated.

How the values were obtained:
[1] = target: prefusion-stabilized SARS-CoV-2 Omicron (B.1.1.529) S trimer (SARS-CoV-2, Omicron B.1.1.529 (BA.1), A67V | Δ69–70 | T95I | G142D | Δ143–145 | Δ211 | L212I | ins214EPE | G339D | …); assay: cryo-EM structure; conditions: both partners purified
[2] = target: T1, SARS-CoV-2 Omicron RBD (ACROBiosystems, cat. no. SPD-C522e) (SARS-CoV-2, Omicron B.1.1.529 (BA.1), G339D | S371L | S373P | S375F | K417N | N440K | G446S | S477N | T478K | E484A | …); assay: BLI; conditions: both partners purified
T1 construct: source: bought: ACROBiosystems

[3] = target: SARS-CoV-2 wild-type spike (S) protein (SARS-CoV-2, WT (MN908947), UniProt P0DTC2); assay: cell-based or functional assay

Binder	stoichiometry N [1]	authentic virus IC50(μg/ml), Wild-type [3]	pseudovirus IC50(μg/ml), Wild-type [3]	further results
XGv265 Fab fragment (Fab, V domains shown) VH: QITLKESGPTLVKPTQTLTLTCNFSGFSLNTYGVGVGWIRQPPGKALEWLALIYWDGDERYGPFFKNKVTIAKDTSKNQVVLTMTNMDPVDTATYYCARHLIPTIFDYWGQGTLVTVSS VL: QSALTQPASVSGSPGQSITISCTGTSSDVGGSNYVSWYQHHPDRAPKLLIYEVTNRPSGVSNRFSGSKSANTASLTISGLQAEDEADYYCSSYTTTSTHILFGGGTKLTV	2 Fabs per S trimer			
XGv347 monoclonal antibody (antibody, V domains shown, copies: 2 + 2) VH: QMQLVQSGPEVKKPGTSVKVSCKASGFTFTDVSSLQWVRQARGQRLEWIGWTVVGTGNTNYAPRFQERVTITTDKSTSTAYMELSSLRSEDTAVYYCAAPFCSETSCSDGFDLWGQGTKVTVSS VL: EIVLTQSPGTLSLSPGDRATLSCRASQSVRISYLAWYQQKPGQAPRLLISGSSSRATGIPDRFSASGSGTDFALTISRLEPEDFAVYYCQQYDNSPWTFGQGTKVEVK				fold decrease in binding against WT S [2]: 40 fold
XGv282 monoclonal antibody (antibody, V domains shown, IgG1; copies: 2 + 2) VH: QVQLVQSGAEVKKPGSSVKVSCKASGDTFSSYTFSWVRQAPGQGLEWMGRSIPIVGKAIYAQEFQGRVTISADRSTTTVYMELSSLRSDDTAVYYCARDQSGFDFFYYDHWGQGTLVAVSS VL: QSVLTQPPSASGTPGQRVTISCSGSGSNIGSNTINWYQQLPGTAPKVLIYRNNERPSGVPDRFSGSKSGTSASLTISGLQSEDEAYYHCAAWDDSLNGPVFGGGTKLTVL				fold reduction in binding affinity against WT S [2]: 5 fold
XGv347 Fab fragment (Fab, V domains shown) VH: QMQLVQSGPEVKKPGTSVKVSCKASGFTFTDVSSLQWVRQARGQRLEWIGWTVVGTGNTNYAPRFQERVTITTDKSTSTAYMELSSLRSEDTAVYYCAAPFCSETSCSDGFDLWGQGTKVTVS VL: EIVLTQSPGTLSLSPGDRATLSCRASQSVRISYLAWYQQKPGQAPRLLISGSSSRATGIPDRFSASGSGTDFTLTISRLEPEDFAVYYCQQYANSPWTFGQGTKVEV	3 Fabs per S trimer and 2 Fabs per S trimer			
XGv289 Fab fragment (Fab, V domains shown) VH: QVQLVQSGAEVKKPGASLKVSCRASGYTFTSHFIHWVRQAPGQGLEWMGIINPSGGASYAQNFRDRVTMTTDPSTSTVYMELGSLRSEDTAVYYCARAEGSSWLGWFDPWGQGTLVTVSS VL: QSVLTQPPSASGTPGQRVTIPCSGSSSNIGNNYVYWYQQLPGTAPKLLVYGNNQRPSGVPDRFSVSKSGTSASLAISGLRSEDEADYYCAAWDDGLSGSGWVFGGGTKLTVL	3 Fabs per S trimer			
XGv282 Fab fragment (Fab, V domains shown) VH: QVQLVQSGAEVKKPGSSVKVSCKASGDTFSSYTFSWVRQAPGQGLEWMGRSIPIVGKAIYAQEFQGRVTISADRSTTTVYMELSSLRSDDTAVYYCARDQSGFDFFYYDHWGQGTLVAVSS VL: QSVLTQPPSASGTPGQRVTISCSGSGSNIGSNTINWYQQLPGTAPKVLIYRNNERPSGVPDRFSGSKSGTSASLTISGLQSEDEAYYHCAAWDDSLNGPVFGGGTKLTVL	3 Fabs per S trimer			
XGv347 (antibody, V domains shown) VH: QMQLVQSGPEVKKPGTSVKVSCKASGFTFTDVSSLQWVRQARGQRLEWIGWTVVGTGNTNYAPRFQERVTITTDKSTSTAYMELSSLRSEDTAVYYCAAPFCSETSCSDGFDLWGQGTKVTVSS VL: EIVLTQSPGTLSLSPGDRATLSCRASQSVRISYLAWYQQKPGQAPRLLISGSSSRATGIPDRFSASGSGTDFALTISRLEPEDFAVYYCQQYDNSPWTFGQGTKVEVK		0.0061 µg/mL	0.0685 µg/mL	
XGv289 (antibody, V domains shown) VH: QVQLVQSGAEVKKPGASLKVSCRASGYTFTSHFIHWVRQAPGQGLEWMGIINPSGGASYAQNFRDRVTMTTDPSTSTVYMELGSLRSEDTAVYYCARAEGSSWLGWFDPWGQGTLVTVSS VL: QSVLTQPPSASGTPGQRVTIPCSGSSSNIGNNYVYWYQQLPGTAPKLLVYGNNQRPSGVPDRFSVSKSGTSASLAISGLRSEDEADYYCAAWDDGLSGSGWVFGGGTKLTVL		0.0061 µg/mL	0.00928 µg/mL	
XGv282 (antibody, V domains shown) VH: QVQLVQSGAEVKKPGSSVKVSCKASGDTFSSYTFSWVRQAPGQGLEWMGRSIPIVGKAIYAQEFQGRVTISADRSTTTVYMELSSLRSDDTAVYYCARDQSGFDFFYYDHWGQGTLVAVSS VL: QSVLTQPPSASGTPGQRVTISCSGSGSNIGSNTINWYQQLPGTAPKVLIYRNNERPSGVPDRFSGSKSGTSASLTISGLQSEDEAYYHCAAWDDSLNGPVFGGGTKLTVL		0.00102 µg/mL	0.007 µg/mL	
XGv265 (antibody, V domains shown) VH: QITLKESGPTLVKPTQTLTLTCNFSGFSLNTYGVGVGWIRQPPGKALEWLALIYWDGDERYGPFFKNKVTIAKDTSKNQVVLTMTNMDPVDTATYYCARHLIPTIFDYWGQGTLVTVSS VL: QSALTQPASVSGSPGQSITISCTGTSSDVGGSNYVSWYQHHPDRAPKLLIYEVTNRPSGVSNRFSGSKSANTASLTISGLQAEDEADYYCSSYTTTSTHILFGGGTKLTV		0.0122 µg/mL	0.0105 µg/mL	
